{"source": "paper PMC3738495", "about": "“Structure of the Parainfluenza Virus 5 (PIV5) Hemagglutinin-Neuraminidase (HN) Ectodomain” (PLoS Pathogens, 2013)", "target": "the molecule itself", "assay": "crystal structure; PIV5 HN ectodomain 56-565 at ~10 mg/mL with a 1.2 molar excess of sialyllactose; 1.6 M ammonium sulfate, 0.1 M MES pH 6.5, 10% 1,4-dioxane, room temperature; space group I4, 2.5 Å", "data": [{"protein": "PIV5 HN ectodomain (56-565) (domain or fragment, Hemagglutinin-neuraminidase (HN) of parainfluenza virus 5, ectodomain residues 56-565 (stalk 56-101, linker 102-117, head from I118); also called parainfluenza virus 5 hemagglutinin-neuraminidase ectodomain) SGLGSITDLLNNILSVANQIIYNSAVALPLQLDTLESTLLTAIKSLQTSDKLEQNCSWSAALINDNRYINGINQFYFSIAEGRNLTLGPLLNMPSFIPTATTPEGCTRIPSFSLTKTHWCYTHNVILNGCQDHVSSNQFVSMGIIEPTSAGFPFFRTLKTLYLSDGVNRKSCSISTVPGGCMMYCFVSTQPERDDYFSAAPPEQRIIIMYYNDTIVERIINPPGVLDVWATLNPGTGSGVYYLGWVLFPIYGGVIKGTSLWNNQANKYFIPQMVAALCSQNQATQVQNAKSSYYSSWFGNRMIQSGILACPLRQDLTNECLVLPFSNDQVLMGAEGRLYMYGDSVYYYQRSNSWWPMTMLYKVTITFTNGQPSAISAQNVPTQQVPRPGTGDCSATNRCPGFCLTGVYADAWLLTNPSSTSTFGSEATFTGSYLNTATQRINPTMYIANNTQIISSQQFGSSGQEAAYGHTTCFRDTGSVMVYCIYIIELSSSLLGQFQIVPFIRQVTLS", "values": [{"measurement": "stoichiometry N", "result": 4}]}]}
